Data published in the supplement of paper PMC9112550, “Optimization of the antimicrobial peptide Bac7 by deep mutational scanning” (BMC Biology, 2022).

tested on: Escherichia coli TOP10; assay: shrunken log2 fold change of peptide-encoding DNA abundance (4.5 h post-induction vs induction); higher = less antimicrobial activity (less host growth inhibition); conditions: time post-induction: 4.5 h; library: site-saturation at positions 5, 18, 19, 20
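Also: peptides expressed intracellularly from a pBAD plasmid library in pooled LB shake-flask culture, induced with 0.3% L-arabinose, DNA abundance read by NGS, three biological replicates, DESeq2 with apeglm shrinkage.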

Row | Sequence | shrunken log2 fold change
1 | RRIRYRPPRLPRPRPRPYSKPRP | -0.124
2 | RRIRTRPPRLPRPRPRPQFSPRP | -0.823
3 | RRIRDRPPRLPRPRPRPVWNPRP | 0.00745
4 | RRIRARPPRLPRPRPRPTWNPRP | 0.279
5 | RRIRTRPPRLPRPRPRPACVPRP | 0.235
6 | RRIRRRPPRLPRPRPRPVVVPRP | 0.186
7 | RRIRGRPPRLPRPRPRPDVNPRP | 0.245
8 | RRIRFRPPRLPRPRPRPEHDPRP | -0.446
9 | RRIRNRPPRLPRPRPRPEEQPRP | 0.202
10 | RRIRSRPPRLPRPRPRPIPTPRP | 0.2
11 | RRIRNRPPRLPRPRPRPDASPRP | 0.14
12 | RRIRMRPPRLPRPRPRPLKMPRP | 0.146
13 | RRIRPRPPRLPRPRPRPSFTPRP | -0.213
14 | RRIRERPPRLPRPRPRPWCFPRP | -0.161
15 | RRIRIRPPRLPRPRPRPIVFPRP | -0.144
16 | RRIRVRPPRLPRPRPRPVYSPRP | -0.0974
17 | RRIRWRPPRLPRPRPRPEVPPRP | 0.0568
18 | RRIRWRPPRLPRPRPRPIADPRP | 0.0247
19 | RRIRMRPPRLPRPRPRPDLVPRP | 1.01
20 | RRIRARPPRLPRPRPRPFKWPRP | -0.176
21 | RRIRRRPPRLPRPRPRPKEQPRP | 0.118
22 | RRIRKRPPRLPRPRPRPRMLPRP | 0.588
23 | RRIRSRPPRLPRPRPRPYTCPRP | -0.039
24 | RRIRERPPRLPRPRPRPNQSPRP | -0.236
25 | RRIRMRPPRLPRPRPRPRGFPRP | 0.045

Row | Sequence | shrunken log2 fold change
26 | RRIRQRPPRLPRPRPRPPMQPRP | -0.055
27 | RRIRNRPPRLPRPRPRPWMWPRP | -0.0133
28 | RRIRCRPPRLPRPRPRPDMIPRP | -0.69
29 | RRIRMRPPRLPRPRPRPGTEPRP | 0.562
30 | RRIRARPPRLPRPRPRPNKMPRP | -0.177
31 | RRIRTRPPRLPRPRPRPWCAPRP | -0.203
32 | RRIRPRPPRLPRPRPRPKINPRP | -0.32
33 | RRIRDRPPRLPRPRPRPKWKPRP | -0.00871
34 | RRIRMRPPRLPRPRPRPEQEPRP | 0.033
35 | RRIRNRPPRLPRPRPRPPPGPRP | 0.863
36 | RRIRVRPPRLPRPRPRPHIWPRP | -0.244
37 | RRIRGRPPRLPRPRPRPHGHPRP | 0.382
38 | RRIRDRPPRLPRPRPRPQIGPRP | -0.00672
39 | RRIRWRPPRLPRPRPRPYSMPRP | -0.314
40 | RRIRPRPPRLPRPRPRPPMKPRP | 0.0802
41 | RRIRWRPPRLPRPRPRPWEMPRP | -0.0156
42 | RRIRCRPPRLPRPRPRPMCNPRP | -0.378
43 | RRIRMRPPRLPRPRPRPCWPPRP | 0.218
44 | RRIRNRPPRLPRPRPRPHDHPRP | 0.171
45 | RRIRMRPPRLPRPRPRPFRMPRP | 0.00199
46 | RRIRDRPPRLPRPRPRPNCRPRP | 0.0111
47 | RRIRLRPPRLPRPRPRPLAEPRP | 0.289
48 | RRIRLRPPRLPRPRPRPMAWPRP | -0.0215
49 | RRIRWRPPRLPRPRPRPVNLPRP | -0.291
50 | RRIRPRPPRLPRPRPRPIRWPRP | -0.0338

Row | Sequence | shrunken log2 fold change
51 | RRIRCRPPRLPRPRPRPRQMPRP | -0.136
52 | RRIRYRPPRLPRPRPRPQKWPRP | -0.16
53 | RRIRLRPPRLPRPRPRPNDWPRP | -0.261
54 | RRIRDRPPRLPRPRPRPSAIPRP | 0.0484
55 | RRIRRRPPRLPRPRPRPAHVPRP | 0.0907
56 | RRIRARPPRLPRPRPRPTLMPRP | 0.768
57 | RRIRRRPPRLPRPRPRPFLMPRP | 0.0572
58 | RRIRWRPPRLPRPRPRPIHSPRP | -0.0401
59 | RRIRLRPPRLPRPRPRPRLSPRP | 0.346
60 | RRIRLRPPRLPRPRPRPSAPPRP | 0.054
61 | RRIRWRPPRLPRPRPRPRLDPRP | 0.459
62 | RRIRDRPPRLPRPRPRPQWWPRP | 0.274
63 | RRIRNRPPRLPRPRPRPVCDPRP | 0.0842
64 | RRIRQRPPRLPRPRPRPVRRPRP | -0.00994
65 | RRIRSRPPRLPRPRPRPQTQPRP | 0.198
66 | RRIRYRPPRLPRPRPRPFRPPRP | -0.0325
67 | RRIRPRPPRLPRPRPRPVWCPRP | 0.0172
68 | RRIRARPPRLPRPRPRPFQDPRP | -0.297
69 | RRIRNRPPRLPRPRPRPTNIPRP | -0.312
70 | RRIRIRPPRLPRPRPRPLGNPRP | -0.19
71 | RRIRMRPPRLPRPRPRPQSVPRP | 0.0409
72 | RRIRVRPPRLPRPRPRPECVPRP | 0.399
73 | RRIRFRPPRLPRPRPRPLKYPRP | -0.262
74 | RRIRNRPPRLPRPRPRPDIMPRP | -0.039
75 | RRIRARPPRLPRPRPRPIEIPRP | 0.0613
